The record followed here is patent US20210388087A1 (Chugai, published 2021).

The assay has as its target T1, CD3 epsilon homodimer protein (UniProt P07766 23-126).
T1 construct: also called CD3 (CD3 epsilon)
In words: SPR, CD3 epsilon homodimer on chip, one-arm antibody as analyte.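 Further: surface plasmon resonance at 25 °C with CD3 epsilon homodimer amine-coupled to a CM4 sensor chip, antibody injected as analyte, HBS-EP+ as running buffer.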 On the technique in general: SPR reads the build-up and loss of mass on a sensor chip optically.

T1 sequence (P07766 23-126): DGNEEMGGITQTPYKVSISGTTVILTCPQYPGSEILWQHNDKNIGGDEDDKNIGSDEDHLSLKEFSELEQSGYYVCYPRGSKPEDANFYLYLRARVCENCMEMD

B1: CE115HA000 D73E (antibody, human IgG1, kappa, L234A L235A, N297A, name in Kabat numbering)
heavy: QVQLVESGGGVVQPGRSLRLSCAASGFTFSNAWMHWVRQAPGKGLEWVAQIKAKSNNYATYYAESVKGRFTISRDESKNSLYLQMNSLKTEDTAVYYCRYVHYGAYYGVDAWGQGTTVTVSSASTKGPSVFPLAPSSKSTSGGTAALGCLVKDYFPEPVTVSWNSGALTSGVHTFPAVLQSSGLYSLSSVVTVPSSSLGTQTYICNVNHKPSNTKVDKKVEPKSCDKTHTCPPCPAPEAAGGPSVFLFPPKPKDTLMISRTPEVTCVVVDVSHEDPEVKFNWYVDGVEVHNAKTKPREEQYASTYRVVSVLTVLHQDWLNGKEYKCKVSNKALPAPIEKTISKAKGQPREPQVYTLPPSRCELTKNQVSLSCAVKGFYPSDIAVEWESNGQPENNYKTTPPVLDSDGSFFLVSKLTVDKSRWQQGNVFSCSVMHEALHNHYTQKSLSLSPDYKDDDDK
chain: EPKSSDKTHTCPPCPAPELLGGPSVFLFPPKPKDTLMISRTPEVTCVVVDVSHEDPEVKFNWYVDGVEVHNAKTKPREEQYNSTYRVVSVLTVLHQDWLNGKEYKCKVSNKALPAPIEKTISKAKGQPREPQVCTLPPSRDELTKNQVSLWCLVKGFYPSDIAVEWESNGQPENNYKTTPPVLDSDGSFFLYSKLTVDKSRWQQGNVFSCSVMHEALHNRYTQKSLSLSP
light: DIVMTQSPLSLPVTPGEPASISCRSSQSLVHSNRNTYLHWYQQKPGQAPRLLIYKVSNRFSGVPDRFSGSGSGTDFTLKISRVEAEDVGVYYCGQGTQVPYTFGQGTKLEIKRTVAAPSVFIFPPSDEQLKSGTASVVCLLNNFYPREAKVQWKVDNALQSGNSQESVTEQDSKDSTYSLSSTLTLSKADYEKHKVYACEVTHQGLSSPVTKSFNRGEC
notes: one-arm antibody
For B1, the “KD ratio (KD of CE115HA000/KD of altered form)” value was 0.56.

B2: CE115HA000 D73G (antibody, human IgG1, kappa, L234A L235A, N297A, name in Kabat numbering)
heavy: QVQLVESGGGVVQPGRSLRLSCAASGFTFSNAWMHWVRQAPGKGLEWVAQIKAKSNNYATYYAESVKGRFTISRDGSKNSLYLQMNSLKTEDTAVYYCRYVHYGAYYGVDAWGQGTTVTVSSASTKGPSVFPLAPSSKSTSGGTAALGCLVKDYFPEPVTVSWNSGALTSGVHTFPAVLQSSGLYSLSSVVTVPSSSLGTQTYICNVNHKPSNTKVDKKVEPKSCDKTHTCPPCPAPEAAGGPSVFLFPPKPKDTLMISRTPEVTCVVVDVSHEDPEVKFNWYVDGVEVHNAKTKPREEQYASTYRVVSVLTVLHQDWLNGKEYKCKVSNKALPAPIEKTISKAKGQPREPQVYTLPPSRCELTKNQVSLSCAVKGFYPSDIAVEWESNGQPENNYKTTPPVLDSDGSFFLVSKLTVDKSRWQQGNVFSCSVMHEALHNHYTQKSLSLSPDYKDDDDK
chain: EPKSSDKTHTCPPCPAPELLGGPSVFLFPPKPKDTLMISRTPEVTCVVVDVSHEDPEVKFNWYVDGVEVHNAKTKPREEQYNSTYRVVSVLTVLHQDWLNGKEYKCKVSNKALPAPIEKTISKAKGQPREPQVCTLPPSRDELTKNQVSLWCLVKGFYPSDIAVEWESNGQPENNYKTTPPVLDSDGSFFLYSKLTVDKSRWQQGNVFSCSVMHEALHNRYTQKSLSLSP
light: DIVMTQSPLSLPVTPGEPASISCRSSQSLVHSNRNTYLHWYQQKPGQAPRLLIYKVSNRFSGVPDRFSGSGSGTDFTLKISRVEAEDVGVYYCGQGTQVPYTFGQGTKLEIKRTVAAPSVFIFPPSDEQLKSGTASVVCLLNNFYPREAKVQWKVDNALQSGNSQESVTEQDSKDSTYSLSSTLTLSKADYEKHKVYACEVTHQGLSSPVTKSFNRGEC
notes: one-arm antibody
For the molecule B2, the “KD ratio (KD of CE115HA000/KD of altered form)” value came to 0.78.
